Key:
MAG + sNogoR344-Fc = biological target: T1, MAG + sNogoR344-Fc (Rattus norvegicus, UniProt Q99M75, A303T/C287S/C43R/E284G/T53A); assay: ELISA: inhibition of MAG binding to sNogoR344-Fc
T1 construct: amino acid residues 26-344 of rat Nogo receptor-1; made in house; CHO (DG44) is described only for sNogoR310-Fc
T1 sequence (Q99M75 26-344 C43R/T53A/E284G/C287S/A303T): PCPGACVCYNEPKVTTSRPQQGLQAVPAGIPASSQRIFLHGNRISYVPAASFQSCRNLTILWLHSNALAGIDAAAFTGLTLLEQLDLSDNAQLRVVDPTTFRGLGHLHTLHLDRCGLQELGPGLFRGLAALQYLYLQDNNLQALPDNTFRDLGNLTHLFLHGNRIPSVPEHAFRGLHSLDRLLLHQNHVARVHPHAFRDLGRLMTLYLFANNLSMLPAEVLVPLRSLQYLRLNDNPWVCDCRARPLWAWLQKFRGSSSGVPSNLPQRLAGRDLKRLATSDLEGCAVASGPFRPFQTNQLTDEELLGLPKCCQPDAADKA
Description: 0.5 μg of a soluble Nogo receptor-1 fusion protein comprising amino acid residues 26-344 of rat Nogo receptor-1 and the hinge and Fc region of the rat IgG1 molecule (sNogoR344-Fc) produced as described below was immobilized on […] of protein-A- or wheatgerm agglutinin-conjugated SPA beads (Amersham Pharmacia Biotech) for 2 hours at 25° C. SPA beads coupled with Fc-sNogoR-1, anti-Nogo receptor-1 mAb and 1 μl ^125I-Nogo66 (Amersham, 2000 Ci/mmol, 1 nM) in […] of the HEPES-buffered incubation medium (10 mM HEPES, pH 7.4, 0.1% bovine serum albumin, 0.1% ovalbumin, 2 mM MgCl2, 2 mM CaCl2 and protease inhibitors) was added to each sample well. After 16 hours, radioactivity was measured in quadruplicate samples using a TopCount® (Packard). IC50 values were calculated from a curve-fit analysis (FIG. 3) (PRISM, GraphPad Software, NJ). In some experiments, we also used AP-ligand conjugates (e.g. AP-Nogo66) and detected binding by monitoring alkaline phosphatase activity. We also assayed the ability of the mAbs to block binding of the ligands MAG-Fc and AP-OM-gp to Nogo receptor-1.
Monoclonal antibodies 7E11, 5B10, 1H2, 3G5 and 2F7 all inhibited binding of Nogo66, MAG and OM-gp to sNogoR344-Fc. The calculated IC50 for Nogo66 for 7E11 and 1H2 were 400 nM and 60 nM, respectively. The data from ELISAs monitoring mAb-mediated inhibition of binding of the three ligands to Nogo receptor-1 are summarized in Table 6.
The percent displacement is shown at 30 nM antibody and the EC50 for certain mAbs determined from curve-fit analysis as described. “-” indicates no detectable activity and “ND” indicates not determined.
We also performed ELISA binding assays using the Fab-phage 141)5.

[1] = tested on: DRG neurons, myelin-mediated inhibition of neurite outgrowth; assay: Neurite outgrowth assay, P3-4 rat DRG neurons on CNS myelin (Example 5); type: cell-based; conditions: mAb added after plating
Description: To test the ability of the monoclonal and Fab-phage antibodies produced above to lessen the inhibitory effect of CNS myelin on neurons, Lab-Tek® culture slides (4 wells) were coated with 0.1 mg/ml poly-D-lysine (Sigma®). CNS myelin or PBS was spotted as 3 μl drops. Fluorescent microspheres (Polysciences) were added to the myelin/PBS to allow later identification of the drops (Grandpre et al., Nature 403:439-444 (2000)). Lab-Tek® slides were then rinsed and coated with 10 μg/ml laminin (Gibco™). Dorsal root ganglions (DRG's) from P3-4 Sprague Dawley rat pups were dissociated with 1 mg/ml collagenase type 1 (Worthington), triturated with fire-polished Pasteur pipettes pre-plated to enrich in neuronal cells and finally plated at 23,000 cells/well on the pre-coated Lab-Tek® culture slides. The culture medium was F12 containing 5% heat inactivated donor horse serum, 5% heat inactivated fetal bovine serum and 50 ng/ml mNGF and incubated at 37° C. and 5% CO2 for 6 hours. Fifteen […] of mAb 7E11 was added immediately after plating.
Slides were fixed for 20 minutes with 4% paraformaldehyde containing 20% sucrose and stained for the neuronal marker anti beta-III-tubulin (Covance TUJ1) diluted 1:500. […] 5× digital images were acquired with OpenLab™ software and analysed by using the MetaMorph® software for quantification of neurite outgrowth.

[2] = biological target: T2, cells expressing human Nogo receptor-1 (Homo sapiens, UniProt Q9BZR6); assay: Immunohistochemistry on fixed and live COS-7 or 293 cells expressing human Nogo receptor-1; type: cell-based; conditions: immunohistochemical staining
T2 construct: expressed in transfected cells; host or cells: COS-7 or 293 cells
T2 sequence (Q9BZR6 27-447): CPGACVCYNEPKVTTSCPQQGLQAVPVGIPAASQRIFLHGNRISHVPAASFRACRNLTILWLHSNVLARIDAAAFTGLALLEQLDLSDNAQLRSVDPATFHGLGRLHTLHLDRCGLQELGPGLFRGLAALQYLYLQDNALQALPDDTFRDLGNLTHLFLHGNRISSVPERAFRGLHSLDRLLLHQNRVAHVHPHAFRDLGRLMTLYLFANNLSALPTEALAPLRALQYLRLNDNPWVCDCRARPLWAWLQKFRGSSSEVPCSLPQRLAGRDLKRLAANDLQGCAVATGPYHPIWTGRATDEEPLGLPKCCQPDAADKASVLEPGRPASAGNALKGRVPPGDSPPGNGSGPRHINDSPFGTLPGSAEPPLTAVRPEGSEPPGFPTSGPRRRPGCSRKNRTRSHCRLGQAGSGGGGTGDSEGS
Description: To further characterize the binding properties of anti-Nogo receptor-1 mAbs produced as described in Example 1, we compared binding to both fixed and live COS-7 or 293 cells expressing rat or human Nogo receptor-1.
Nogo receptor-1 transfected and non-transfected cells were plated in 8-well Lab-Tek™ culture slides, fixed with 4% paraformaldehyde for 15 minutes, blocked with 10% normal goat serum, 0.1% Triton X-100 in PBS for 1 hour. Mab 7E11 was added at 15 μg/ml and 1.5 μg/ml in blocking solution and incubated for 2 hours at room temperature; Alexa®-conjugated secondary antibody anti-mouse (Molecular Probes) was incubated at a 1:300 dilution in blocking solution for 1 hour; DAPI was added at 5 μg/ml to the secondary antibody to label all nuclei.
Transfected and non-transfected cells were plated in 8 well Lab-Tek™ culture slides, blocked with FACS buffer (containing 4% donor horse serum) for 30 minutes at 4° C., incubated with 7E11 at 15 μg/ml and 1.5 μg/ml in FACS buffer for 1 hour at 4° C., rinsed and incubated with secondary antibody anti-mouse-Alexa® (1:300 in FACS buffer) for 30 minutes at 4° C.

inhibition of binding of MAG to sNogoR344-Fc (MAG + sNogoR344-Fc): inhibited | MAG + sNogoR344-Fc: percent displacement (MAG + sNogoR344-Fc; 30 nM antibody): 30 nM (60%) | EC50 (MAG + sNogoR344-Fc; curve-fit analysis): 500 nM | binding to fixed and live cells expressing human Nogo receptor-1 [2]: bound
B1: 7E11: murine monoclonal anti-Nogo receptor-1 antibody, immunogen rat Nogo receptor-1 residues 110-125, IgG1 kappa, ATCC PTA-4587 (antibody, V domains shown)
VH: VQLQESGAELVMPGASVKMSCKASGYTFTDYWMHWVKQRPGQGLEWIGAIDPSDSYSSYNQNFKGKATLTVDGSSSTAYMQLSSLTSEDSAVYYCARRITEAGAWFAYWGQGTTVT
VL: MKLPVRLLVLMFWIPASSSDVVMTQTPLSLPVSLGDQASISCRSSQSLVHSNGNTYLHWYLQKPGQSPKLLIYKVSNRFSGVPDRFSGSGSGTDFTLKISRVDAEDLGVYFCSQSTHVPFTFGGGTKLEIKRADAAPTVSISHH
modifications: 7E11 heavy chain; 7E11 light chain
notes: murine monoclonal anti-Nogo receptor-1 antibody, immunogen rat Nogo receptor-1 residues 110-125, IgG1 kappa, ATCC PTA-4587
protection of DRG neurons from myelin-mediated inhibition of neurite outgrowth [1]: protected

Source: patent publication US9228015B2, “Nogo receptor antagonists and methods of increasing neurite outgrowth” (Biogen Idec MA Inc., priority 2006, dated 2016)
